Data published in patent publication US20180339057A1 (Novo Nordisk, published 2018).

Experiments:
[1] = target: T1, human MIC-1 receptor (hGFRAL, GDNF family receptor alpha like), full length (human, UniProt Q6UXV0 19-394); assay: cell-based or functional assay
T1 sequence (looked up): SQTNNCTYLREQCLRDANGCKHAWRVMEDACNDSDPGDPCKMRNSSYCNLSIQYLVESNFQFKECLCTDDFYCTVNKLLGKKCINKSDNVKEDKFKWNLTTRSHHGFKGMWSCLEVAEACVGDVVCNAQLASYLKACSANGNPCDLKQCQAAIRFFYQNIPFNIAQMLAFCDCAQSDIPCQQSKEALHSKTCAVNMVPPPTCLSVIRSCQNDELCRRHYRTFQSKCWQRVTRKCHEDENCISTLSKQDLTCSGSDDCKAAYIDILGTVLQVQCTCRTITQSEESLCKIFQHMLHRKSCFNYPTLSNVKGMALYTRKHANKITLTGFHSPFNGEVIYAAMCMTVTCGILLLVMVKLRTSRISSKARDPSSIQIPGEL

[2] = target: T1, human MIC-1 receptor (hGFRAL, GDNF …); assay: SPA: displacement of 50 pM human [125I]-MIC-1 from BHK21-hGFRAL-IRES-hRET cell membranes
Description: Binding potencies of MIC-1 compounds were calculated by IC50 of displacement curves.
BHK21-hGFRAL-IRES-hRET cells were cultured at +37° C. in a humidified atmosphere with 5% CO₂ in complete medium consisting of DMEM with high glucose and sodium pyrovate, heat inactivated 10% Fetal Bovine Serum, 1% Penicillin-Streptomycin, 1 mg/ml G418-Geneticin and 400 ug/ml Hygromycin. Cells were washed twice in ice cold Dulbecco's phosphate-buffered saline (DPBS) and detached mechanically by scraping, transferred in ice cold DPBS into conical centrifuge tubes and centrifuged for 5 min at 1500 rpm at +20° C. Cell pellet was resuspended in a total amount of 10 ml ice cold homogenization buffer A (50 mM Tris, 2.5 mM EDTA, adjust pH7.4 with one EDTA-free protease inhibitor cocktail tablet/50 ml) and homogenized for 20 seconds. The homogenate was centrifuged at 16000 rpm in 20 minutes at +4° C. The supernatant was discarded and the pellet was reconstituted in 10 ml homogenization buffer B (50 mM Tris, 320 mM Sucrose, adjust pH 7.4 with one EDTA-free protease inhibitor cocktail tablet/50 ml) and homogenized for 20 seconds and centrifuged at 16000 rpm in 20 minutes at +4° C. This procedure was repeated one more time. The supernatant was discarded and the pellet was reconstituted in 3 ml homogenization buffer B and homogenized for 10 seconds at low speed. Protein concentration was determined by standard Bradford method and 1.5 mg protein/tube was aliquoted to cryotubes and stored at −80° C. Binding assays were performed in white 96-well plates in a total volume of 200 μl per well. Wheat germ agglutinin SPA beads were reconstituted in assay buffer (50 mM Tris/HCl, 4.5 mM MgCl₂, 0.02% Tween 20 and 0.25% Ovalbumin pH 7.4) and mixed with membrane preparation to give a final concentration of 0.5 mg SPA beads and 10 μg total protein per well. […] The plate was sealed and incubated at +22° C. for 2 hours in a plate shaker set at 350 rpm and thereafter centrifuged at 1500 rpm for 10 minutes prior to reading of SPA bead light emission.

B1: SEPCTSGSETPGTSESATPESGPGTSTEPSEG-MIC-1, des-N3, M57L, M86L (Cys mutation A(-29)C) (ligand)
chain: SEPCTSGSETPGTSESATPESGPGTSTEPSEGARGDHCPLGPGRCCRLHTVRASLEDLGWADWVLSPREVQVTMCIGACPSQFRAANLHAQIKTSLHRLKPDTVPAPCCVPASYNPLVLIQKTDTGVSLQTYDDLLAKDCHCI
notes: homodimer; no protractor
With B1 the “Luciferase + 0.1% HSA NNDK EC50 (pM)” value [1] was 75 pM, the “Luciferase NNDK EC50 (pM)” value [1] was 100 pM and the IC50 [2] was 80 nM.

B2: Compound 21 (ligand)
chain: SEPCTSGSETPGTSESATPESGPGTSTEPSEGARGDHCPLGPGRCCRLHTVRASLEDLGWADWVLSPREVQVTMCIGACPSQFRAANMHAQIKTSLHRLKPDTVPAPCCVPASYNPMVLIQKTDTGVSLQTYDDLLAKDCHCI
modifications: Cys-29 (residue 4 of SEQ ID NO: 288): S{Beta}-[2-[2-[[2-[2-[2-[[2-[2-[2-[[(4S)-4-carboxy-4-[16-(1H-tetrazol-5-yl)hexadecanoylamino]butanoyl]amino]ethoxy]ethoxy]acetyl]amino]ethoxy]ethoxy]acetyl]amino]ethylamino]-2-oxoethyl]Cys (protractor of Example 10.10)
notes: homodimer, two protractors per dimer
For B2, the “Luciferase + 0.1% HSA NNDK EC50 (pM)” value [1] was 56 pM, the “Luciferase NNDK EC50 (pM)” value [1] was 53 pM and the IC50 [2] was 1 nM.

B3: Compound 07 (ligand)
chain: SEPATSGSETPGTSESACPESGPGTSTEPSEGARGDHCPLGPGRCCRLHTVRASLEDLGWADWVLSPREVQVTMCIGACPSQFRAANLHAQIKTSLHRLKPDTVPAPCCVPASYNPLVLIQKTDTGVSLQTYDDLLAKDCHCI
modifications: Cys-15 (residue 18 of SEQ ID NO: 292): S{Beta}-[2-[2-[[2-[2-[2-[[2-[2-[2-[[(4S)-4-carboxy-4-(17-carboxyheptadecanoylamino)butanoyl]amino]ethoxy]ethoxy]acetyl]amino]ethoxy]ethoxy]acetyl]amino]ethylamino]-2-oxoethyl]Cys (protractor of Example 10.4)
notes: as for B2
For B3, the “Luciferase + 0.1% HSA NNDK EC50 (pM)” value [1] was 198 pM, the “Luciferase NNDK EC50 (pM)” value [1] was 121 pM and the IC50 [2] was 29 nM.

B4: Compound 08 (ligand)
chain: SEPATSGSETPGTSESATPESGPGTSTEPCEGARGDHCPLGPGRCCRLHTVRASLEDLGWADWVLSPREVQVTMCIGACPSQFRAANLHAQIKTSLHRLKPDTVPAPCCVPASYNPLVLIQKTDTGVSLQTYDDLLAKDCHCI
modifications: Cys-3 (residue 30 of SEQ ID NO: 293): S{Beta}-[2-[2-[[2-[2-[2-[[2-[2-[2-[[(4S)-4-carboxy-4-(17-carboxyheptadecanoylamino)butanoyl]amino]ethoxy]ethoxy]acetyl]amino]ethoxy]ethoxy]acetyl]amino]ethylamino]-2-oxoethyl]Cys (protractor of Example 10.4)
notes: as for B2
For B4, the “Luciferase + 0.1% HSA NNDK EC50 (pM)” value [1] was 651 pM, the “Luciferase NNDK EC50 (pM)” value [1] was 139 pM and the IC50 [2] was 56 nM.

B5: SEPATSGSETPGTSESATPESGPGTSTEPCEG-MIC-1, des-N3, M57L, M86L (Cys mutation S(-3)C) (ligand)
chain: SEPATSGSETPGTSESATPESGPGTSTEPCEGARGDHCPLGPGRCCRLHTVRASLEDLGWADWVLSPREVQVTMCIGACPSQFRAANLHAQIKTSLHRLKPDTVPAPCCVPASYNPLVLIQKTDTGVSLQTYDDLLAKDCHCI
notes: homodimer; no protractor
With B5 the “Luciferase + 0.1% HSA NNDK EC50 (pM)” value [1] was 243 pM, the “Luciferase NNDK EC50 (pM)” value [1] was 217 pM and the IC50 [2] was 83 nM.

B6: SEPATSCSETPGTSESATPESGPGTSTEPSEG-MIC-1, des-N3, M57L, M86L (Cys mutation G(-26)C) (ligand)
chain: SEPATSCSETPGTSESATPESGPGTSTEPSEGARGDHCPLGPGRCCRLHTVRASLEDLGWADWVLSPREVQVTMCIGACPSQFRAANLHAQIKTSLHRLKPDTVPAPCCVPASYNPLVLIQKTDTGVSLQTYDDLLAKDCHCI
notes: homodimer; no protractor
With B6 the “Luciferase + 0.1% HSA NNDK EC50 (pM)” value [1] was 26 pM, the “Luciferase NNDK EC50 (pM)” value [1] was 35 pM and the IC50 [2] was 36 nM.

B7: SEPATSGCETPGTSESATPESGPGTSTEPSEG-MIC-1, des-N3, M57L, M86L (Cys mutation S(-25)C) (ligand)
chain: SEPATSGCETPGTSESATPESGPGTSTEPSEGARGDHCPLGPGRCCRLHTVRASLEDLGWADWVLSPREVQVTMCIGACPSQFRAANLHAQIKTSLHRLKPDTVPAPCCVPASYNPLVLIQKTDTGVSLQTYDDLLAKDCHCI
notes: homodimer; no protractor
In the case of B7, the “Luciferase + 0.1% HSA NNDK EC50 (pM)” value [1] is reported as 34 pM, the “Luciferase NNDK EC50 (pM)” value [1] is reported as 57 pM and the IC50 [2] is reported as 43 nM.

B8: Compound 20 (ligand)
chain: SEPCTSGSETPGTSESATPESGPGTSTEPSEGARGDHCPLGPGRCCRLHTVRASLEDLGWADWVLSPREVQVTMCIGACPSQFRAANMHAQIKTSLHRLKPDTVPAPCCVPASYNPMVLIQKTDTGVSLQTYDDLLAKDCHCI
modifications: Cys-29 (residue 4 of SEQ ID NO: 288): S{Beta}-[2-[[(1S)-1-carboxy-5-[[2-[2-[2-[[2-[2-[2-[[(4S)-4-carboxy-4-[12-(4-carboxyphenoxy)dodecanoylamino]butanoyl]amino]ethoxy]ethoxy]acetyl]amino]ethoxy]ethoxy]acetyl]amino]pentyl]amino]-2-oxoethyl]Cys (protractor of Example 10.9)
notes: as for B2
With B8 the “Luciferase + 0.1% HSA NNDK EC50 (pM)” value [1] was 77 pM, the “Luciferase NNDK EC50 (pM)” value [1] was 49 pM and the IC50 [2] was 6.5 nM.

B9: Compound 18 (ligand)
chain: SEPCTSGSETPGTSESATPESGPGTSTEPSEGARGDHCPLGPGRCCRLHTVRASLEDLGWADWVLSPREVQVTMCIGACPSQFRAANMHAQIKTSLHRLKPDTVPAPCCVPASYNPMVLIQKTDTGVSLQTYDDLLAKDCHCI
modifications: Cys-29 (residue 4 of SEQ ID NO: 288): S{Beta}-[2-[[(5S)-5-carboxy-5-[[2-[2-[2-[[2-[2-[2-[4-[17-(1H-tetrazol-5-yl)heptadecanoylsulfamoyl]butanoylamino]ethoxy]ethoxy]acetyl]amino]ethoxy]ethoxy]acetyl]amino]pentyl]amino]-2-oxoethyl]Cys (protractor of Example 10.7)
notes: as for B2
In the case of B9, the “Luciferase + 0.1% HSA NNDK EC50 (pM)” value [1] is reported as 67 pM, the “Luciferase NNDK EC50 (pM)” value [1] is reported as 66 pM and the IC50 [2] is reported as 1.3 nM.
